The text below walks through data of article PMC4475061 (2015).

For test [1], the target named is IST1 MIMs peptide (residues 316–366), fluorescently labeled (human, Oregon Green 488 maleimide on the non-native N-terminal cysteine). The experiment in a line: FP.
Test [2] concerns the target IST1 MIM2 peptide (residues 316–343). The experiment in a line: FP.

Substitutions are numbered along the chain they refer to. Numbers in names are those of the source.

B1: ULK3(MIT)2 V338D (domain or fragment)
chain: GPHMSGESLGRATALVVQAVKKDQEGDSAAALSLYCKALDFFVPALHYEVDAQRKEAIKAKVGQYDSRAEELKAIVSSSNQALLRQGTSARDLLREMARDKPRLLAALEVASAAMAKEEAAGGEQDALDLYQHSLGELLLLLAAEPPGRRRELLHTEVQNLMARAEYLKEQVKMRES
As for B1, the Kd – broadly, the equilibrium constant for the complex coming apart – in test [1] turned out to be 0.32 µM.

B2: ULK3(MIT)2 M434D (domain or fragment)
chain: B1 chain with D66V, M162D
In test [1], B2 returned a Kd of 24.3 µM.

B3: ULK3(MIT)2 (residues 277–449) (domain or fragment)
chain: B1 chain with D66V
The molecule B3 yielded a Kd in test [2] of more than 300 µM.
